The text below walks through data of patent publication US20180344870A1 (AGENUS, published 2018).

Test [1] has as its target T1, “4-aa human to mouse” CD137 protein (human with a murine segment, UniProt Q07011 24-186).
T1 construct: also called “human to mouse” CD137 chimeric protein; not shown: Gly-Ser linker
Description: SPR, antibody captured by anti-human Fab, CD137 protein as analyte. How it is done: (§1) The chimeric CD137 proteins described above were tested in a surface plasmon resonance (SPR) assay. Briefly, a CM5 sensor chip was first coated with an anti-human Fab antibody using the amine coupling kit. […] Sensorgrams were recorded during both the association and dissociation phases.

In test [2] the target is T2, human-mouse fusion construct 5015 of CD137, on Jurkat cells (human with a murine segment, UniProt Q07011 24-255).
T2 construct: also called mutant 5015; murine switch mutant 5015
T2 chain: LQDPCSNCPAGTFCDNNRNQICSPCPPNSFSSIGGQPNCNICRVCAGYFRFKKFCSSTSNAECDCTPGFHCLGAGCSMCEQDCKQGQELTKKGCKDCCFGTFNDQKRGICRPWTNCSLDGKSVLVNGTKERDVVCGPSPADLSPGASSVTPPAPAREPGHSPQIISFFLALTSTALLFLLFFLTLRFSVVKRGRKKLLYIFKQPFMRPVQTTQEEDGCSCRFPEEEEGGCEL
Description: flow cytometry on transfected Jurkat cells, anti-human IgG-PE detection. The procedure: (§2) These engineered mutant cell lines were used to test whether anti-CD137 antibody can bind to particular switch mutants. Absence of binding would thereby indicate possible epitope locations. The cell binding assays were performed generally as described in Section 1.1. […] The cells were then washed and suspended in 80 μl of 2% paraformaldehyde (Electron Microscopy Sciences) prepared in PBS. Data were collected with BD FACS Canto and analyzed using BD FACSDiva software.

For test [3], the target named is T3, human-mouse fusion construct 5016 of CD137, on Jurkat cells (human with a murine segment, UniProt Q07011 24-255).
T3 chain: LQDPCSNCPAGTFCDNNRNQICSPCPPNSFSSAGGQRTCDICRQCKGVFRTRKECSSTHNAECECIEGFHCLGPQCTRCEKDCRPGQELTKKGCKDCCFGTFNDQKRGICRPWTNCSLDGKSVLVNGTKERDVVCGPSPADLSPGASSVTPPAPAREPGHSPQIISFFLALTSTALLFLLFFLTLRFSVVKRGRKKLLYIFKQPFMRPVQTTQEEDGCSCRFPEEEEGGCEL
The test is described as above. How it is done: as §2

The target in test [4] is T4, human-mouse fusion construct 5018 of CD137, on Jurkat cells (human with a murine segment, UniProt Q07011 24-255).
T4 construct: also called mutant 5018; murine switch mutant 5018
T4 chain: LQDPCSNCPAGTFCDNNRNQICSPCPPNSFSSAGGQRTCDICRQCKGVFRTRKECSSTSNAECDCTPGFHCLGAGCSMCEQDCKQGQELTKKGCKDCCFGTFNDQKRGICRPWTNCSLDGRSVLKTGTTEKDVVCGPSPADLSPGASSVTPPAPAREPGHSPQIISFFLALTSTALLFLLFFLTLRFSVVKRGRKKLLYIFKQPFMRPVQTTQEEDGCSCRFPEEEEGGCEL
Described as above. How it is done:
as §2

Test [5] concerns the target T5, human-mouse fusion construct 5017 of CD137, on Jurkat cells (human with a murine segment, UniProt Q07011 24-255).
T5 construct: on Jurkat cells
T5 chain: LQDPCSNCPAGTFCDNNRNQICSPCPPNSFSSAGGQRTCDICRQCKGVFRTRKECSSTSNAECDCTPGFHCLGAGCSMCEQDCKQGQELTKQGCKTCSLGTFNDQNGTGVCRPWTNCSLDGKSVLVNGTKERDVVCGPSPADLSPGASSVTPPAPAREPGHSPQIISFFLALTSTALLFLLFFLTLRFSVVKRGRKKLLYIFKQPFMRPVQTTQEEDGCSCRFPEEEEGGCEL
Description: flow cytometry on transfected Jurkat cells, serial dilutions of antibody. The procedure:
as §2

The target in test [6] is T6, human CD137 expressed on cells (human, UniProt Q07011 24-255).
T6 construct: also called 4-1BB; TNFRSF9
Put plainly: flow cytometry on engineered Jurkat cells, anti-human lambda-PE detection. (In general: In flow cytometry, cells or beads pass a laser one at a time.)

The target in test [7] is T7, “4-aa mouse to human” CD137 protein (murine with a human segment, UniProt P20334 24-187).
T7 construct: also called “mouse to human” CD137 chimeric protein; not shown: Gly-Ser linker
Put plainly: SPR, BA001 captured by anti-human Fab, chimeric protein at 60 nM as analyte. The procedure: as §1
(In general: SPR reads the build-up and loss of mass on a sensor chip optically.)

The target of test [8] is T8, mouse-human fusion construct 5015 (extracellular domain, Gly-Ser linker, 6×His tag) (murine with a human segment, UniProt P20334 24-187).
T8 construct: also called mCD137-human53-80; not shown: Gly-Ser linker
T8 chain (part 1 of 2): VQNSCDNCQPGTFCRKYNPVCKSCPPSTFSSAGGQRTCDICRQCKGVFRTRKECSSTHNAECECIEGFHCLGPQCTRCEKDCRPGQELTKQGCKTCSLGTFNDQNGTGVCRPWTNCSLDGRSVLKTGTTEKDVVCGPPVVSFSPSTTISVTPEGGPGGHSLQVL
T8 chain (part 2 of 2): HHHHHH
Description: ELISA (DELFIA europium read-out), antigen coated at 5 µg/ml. The procedure: (§3) Specifically, 50 μl of 5 μg/ml of each antigen diluted in 1×PBS pH 7.4 (Gibco™, Cat no. 10010056) was added to each well in a Thermo Scientific™ Black 96-Well Immuno Plate (Thermofisher Scientific, Cat no. 437111) and incubated at 4° C. overnight. The plate was washed three times with PBS using the Biotek 405TS microplate washer with Biostack3 microplate stacker. The plate was blocked by incubating with 300 ul/well of 3% Milk Powder in PBS (Marvel dried skimmed milk powder) for 1 hour at room temperature, and were washed three times with 1×PBS. The antibodies titrated in 3% M-PBS (Milk Powder in 1×PBS) were added to the plate and incubated for 1 hour at room temperature. The plate was washed three times with 1×PBS with 0.1% Tween20 (Sigma Aldrich, Cat No. P1379) and three times with 1×PBS using the plate washer. 50 μl Biotin-SP (long spacer) AffiniPure Goat Anti-Human IgG, Fcγ Fragment Specific (Jackson Immuno Research, Code:109-065-098, Lot no. 123909) diluted at 1:2000 in 3% M-PBS was added to each well and incubated for 1 hour at room temperature. The plate was washed three times with 1×PBS with 0.1% Tween20 and three times with 1×PBS using the plate washer. For detection, 50 μl of DELFIA® Europium-labeled streptavidin (PerkinElmer, Part no. 1244-360, Lot no. 2195997) diluted in the DELFIA® Assay buffer (PerkinElmer, Part no. 4002-0010, Lot no. 646702) at 1:500 was added to each well and incubated for 1 hour at room temperature. The plate was washed three times with 1×PBS with 0.1% Tween20 and three times with PBS using the plate washer.
On the technique in general: In an ELISA, binding on a coated surface is turned into a signal by an enzyme label.

The target in test [9] is T9, extracellular domain of human CD137 with Gly-Ser linker and 6×His tag (human, UniProt Q07011 24-186).
T9 construct: also called human CD137 (ELISA antigen); not shown: Gly-Ser linker
Put plainly: ELISA (DELFIA europium read-out), antigen coated at 5 µg/ml, IgG1 titrated. How it is done: as §3

The target of test [10] is T10, mouse-human fusion construct 5017 (extracellular domain, Gly-Ser linker, 6×His tag) (murine with a human segment, UniProt P20334 24-187).
T10 construct: not shown: Gly-Ser linker
T10 chain (part 1 of 2): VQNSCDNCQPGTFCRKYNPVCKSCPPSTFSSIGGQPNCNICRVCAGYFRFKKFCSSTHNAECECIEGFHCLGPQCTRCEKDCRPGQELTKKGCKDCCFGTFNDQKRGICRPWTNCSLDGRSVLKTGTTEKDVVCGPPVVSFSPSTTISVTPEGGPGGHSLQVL
T10 chain (part 2 of 2): HHHHHH
The test is described as above. The procedure:
as §3

B1: BA001 (IgG1) (antibody, V domains shown)
VH: not shown
VL: SYVLTQPPSVSVAPGETARITCGGDDIGDKRVHWYQKKPDQAPVLVVYEDRYRPSGIPERISGSNSGNTATLTLSRVEAGDEADYYCQVWDSSSDHPGVFGGGTQLIILG
modifications: N-terminal X = glutamine (Q) or pyroglutamate (pE)
notes: Human IgG1 with lambda light chain; also called anti-CD137 antibody BA001
With B1, the binding result in [1] is recorded as “no binding (tested: 60 nM)”; in [2] it was “binds”; in test [3], “binds”; in test [4], “binds”; in test [5], “no binding”; in [6] it was “binds”. Further, the binding result in test [7] is recorded as “binds”.

B2: BA049 (IgG1 format) (antibody, V domains shown)
VH: not shown
VL: SYVLTQPPSVSVAPGETARITCGGDDIGDKRVHWYQKKPDQAPVLVVYEDRYRPSGIPERISGSNSGNTATLTLSRVEAGDEADYYCQVWDSSSDHPGVFGGGTQLIILG
modifications: N-terminal X = glutamine (Q) or pyroglutamate (pE)
For the molecule B2, the binding result in [8] is “no binding”; in test [9], “binds”; in test [10], “binds”.

B3: BA051 (IgG1 format) (antibody, V domains shown)
VH: not shown
VL: SYVLTQPPSVSVAPGETARITCGGDDIGDKRVHWYQKKPDQAPVLVVYEDRYRPSGIPERISGSNSGNTATLTLSRVEAGDEADYYCQVWDSSSDYPGVFGGGTQLIILG
modifications: N-terminal X = glutamine (Q) or pyroglutamate (pE)
In the case of B3, the binding result is listed as “no binding” in test [8], “binds” in [9] and “binds” in test [10].

B4: BA050 (IgG1 format) (antibody, V domains shown)
VH: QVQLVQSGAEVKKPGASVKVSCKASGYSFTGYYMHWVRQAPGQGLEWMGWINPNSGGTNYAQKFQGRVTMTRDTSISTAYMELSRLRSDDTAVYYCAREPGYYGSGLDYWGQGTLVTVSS
VL: SYVLTQPPSVSVAPGETARITCGGDDIGDKRVHWYQKKPDQAPVLVVYEDRYRPSGIPERISGSNSGNTATLTLSRVEAGDEADYYCQVWNSSSDHPGVFGGGTQLIILG
modifications: N-terminal X = glutamine (Q) or pyroglutamate (pE)
Regarding B4, the values for the binding result in [8], in [9] and in test [10] were “no binding”, “binds” and “binds”, respectively.

B5: BA052 (IgG1 format) (antibody, V domains shown)
VH: QVQLVQSGAEVKKPGASVKVSCKASGYNFSGYYMHWVRQAPGQGLEWMGWINPNSGGTNYAQKFQGRVTITRDTSISTAYMELSRLRSDDTAVYYCAREPGYYGSGLDYWGQGTLVTVSS
VL: SYVLTQPPSVSVAPGETARITCGGDDIGDKRVHWYQKKPDQAPVLVVYEDRYRPSGIPERISGSNSGNTATLTLSRVEAGDEADYYCQVWYSSPDHPGVFGGGTQLIILG
modifications: N-terminal X = glutamine (Q) or pyroglutamate (pE)
On to B5, for which the binding result in test [8] was “no binding”; in [9], “binds”; in test [10], “binds”.
